Among the data in US20140056902A1 are EC50 (read off the curve), Kd and Relative binding affinity (to R&D antibody) values, retold here.

The target in assay [1] is human mature dimer BMP9 recombinant protein (manufactured by R&D systems, Cat#3209-BP) (human) (UniProt Q9UK05). Description: ELISA, immobilized human BMP9 (100 ng/mL coat), biotin-labeled antibody titrated, absorbance 450-570 nm; unit ng/mL from the legend. (In an ELISA, binding on a coated surface is turned into a signal by an enzyme label.)
The target of assay [2] is human BMP9 recombinant protein prepared according to Example 12 of WO 2010/126169 (N-terminal His-tagged hBMP9 complex, pLN1V5_human BMP9 vector) (human) (UniProt Q9UK05). Description: SPR (BIAcore 2000), antibody captured on anti-mouse IgG, human BMP9 recombinant protein as analyte, single cycle kinetics. In general terms: SPR reads the build-up and loss of mass on a sensor chip optically.

Broadly, the EC50 (read off the curve) is the concentration at which the effect is half-maximal. Broadly, the Kd is the equilibrium constant for the complex coming apart.

Chain of human BMP9 recombinant protein prepared according to Example 12 of WO 2010/126169 (N-terminal His-tagged hBMP9 complex, pLN1V5_human BMP9 vector) (human) (Q9UK05 320-429, chain 1 of 2): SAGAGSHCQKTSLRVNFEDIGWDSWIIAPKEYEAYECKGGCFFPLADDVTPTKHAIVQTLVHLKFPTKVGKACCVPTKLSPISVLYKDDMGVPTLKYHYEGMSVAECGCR
Chain of human BMP9 recombinant protein prepared according to Example 12 of WO 2010/126169 (N-terminal His-tagged hBMP9 complex, pLN1V5_human BMP9 vector) (human) (Q9UK05 23-319, chain 2 of 2): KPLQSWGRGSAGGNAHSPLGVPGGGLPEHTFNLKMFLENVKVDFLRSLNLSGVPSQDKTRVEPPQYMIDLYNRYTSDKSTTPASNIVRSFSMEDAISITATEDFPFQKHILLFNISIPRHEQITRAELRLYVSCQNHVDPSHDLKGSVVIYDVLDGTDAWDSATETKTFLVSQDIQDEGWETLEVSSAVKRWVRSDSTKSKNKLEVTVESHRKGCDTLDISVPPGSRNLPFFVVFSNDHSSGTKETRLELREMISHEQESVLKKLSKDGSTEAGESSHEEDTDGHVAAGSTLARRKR
Chain of human mature dimer BMP9 recombinant protein (manufactured by R&D systems, Cat#3209-BP) (human) (Q9UK05 320-429): as the sequence (Q9UK05 320-429, chain 1 of 2) above

In the case of “anti-human BMP9 mouse monoclonal antibody (manufactured by R&D systems, clone No. 360107)”, in assay [1], the EC50 (read off the curve) was determined as 10 ng/mL. For the same substance, in assay [2], the dissociation constant (Kd) was determined as 0.616 nM and the Relative binding affinity (to R&D antibody) is 1 fold.
